According to publication PMC6563293:
Where two headings read alike, the source gives them in different places.

System: MBP::P1 (Wheat streak mosaic virus (isolate Sidney 81))
Assay: EMSA

Substance | K half (5' phosphate) [nmol] | K half [nmol]
21-nt GFP ds-siRNA | 0.03 | –
24-nt GFP ds-siRNA | 0.03 | –
180-nt GFP dsRNA | – | 0.03
